Results published in patent publication US20140199327A1, “METHODS OF PROMOTING DIFFERENTIATION” (Genentech, Inc., priority 2011, published 2014).

Tests used:
Assay in all cases: Flag immunoprecipitation of DUBs from 293T cells cotransfected with ID2, MG-132 treated (FIG. 2B)
[1] = molecular target: T1, USP37-Flag (human USP37 with C-terminal Flag epitope) (human, UniProt Q86T82 1-979, limits assumed)
T1 sequence (looked up): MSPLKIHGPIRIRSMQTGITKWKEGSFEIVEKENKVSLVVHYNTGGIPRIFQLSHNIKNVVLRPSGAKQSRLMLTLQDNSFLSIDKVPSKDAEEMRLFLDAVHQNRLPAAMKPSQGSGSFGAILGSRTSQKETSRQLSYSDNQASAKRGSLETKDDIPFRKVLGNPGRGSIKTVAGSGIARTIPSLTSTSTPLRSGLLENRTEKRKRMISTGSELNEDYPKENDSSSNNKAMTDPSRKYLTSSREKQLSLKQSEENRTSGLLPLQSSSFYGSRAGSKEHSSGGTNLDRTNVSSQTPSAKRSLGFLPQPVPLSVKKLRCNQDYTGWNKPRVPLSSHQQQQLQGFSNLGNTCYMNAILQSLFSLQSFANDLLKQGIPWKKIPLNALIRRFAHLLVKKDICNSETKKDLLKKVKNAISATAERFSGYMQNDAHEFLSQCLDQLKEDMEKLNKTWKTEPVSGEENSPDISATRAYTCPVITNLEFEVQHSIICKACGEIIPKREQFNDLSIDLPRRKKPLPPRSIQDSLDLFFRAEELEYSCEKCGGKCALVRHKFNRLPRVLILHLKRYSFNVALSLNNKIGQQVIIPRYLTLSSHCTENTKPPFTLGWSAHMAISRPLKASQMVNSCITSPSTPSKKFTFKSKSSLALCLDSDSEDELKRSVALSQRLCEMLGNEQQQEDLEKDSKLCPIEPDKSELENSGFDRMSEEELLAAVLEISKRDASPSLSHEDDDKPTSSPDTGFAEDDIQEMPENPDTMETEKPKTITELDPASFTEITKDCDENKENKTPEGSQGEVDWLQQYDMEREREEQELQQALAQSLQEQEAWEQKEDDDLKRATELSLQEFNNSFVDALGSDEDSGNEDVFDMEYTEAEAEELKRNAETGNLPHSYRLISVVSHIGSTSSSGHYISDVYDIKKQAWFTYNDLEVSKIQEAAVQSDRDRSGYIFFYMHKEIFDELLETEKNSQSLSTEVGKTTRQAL
Method: (§1) FIG. 2. […] (A) Western blot (WB) analysis of 293T transfected with Flag-tagged deubiquitinases (DUBs) or an empty vector (−). Where indicated, cells were treated with […] MG-132 for 4 hr. (B) Flag-tagged DUBs were immunoprecipitated (IP) from 293T cells cotransfected with ID2 and treated with […] MG-132 for 6 hr.

[2] = molecular target: T2, USP36-Flag (human USP36 with C-terminal Flag epitope) (human, UniProt Q9P275 1-1123, limits assumed)
T2 sequence (looked up): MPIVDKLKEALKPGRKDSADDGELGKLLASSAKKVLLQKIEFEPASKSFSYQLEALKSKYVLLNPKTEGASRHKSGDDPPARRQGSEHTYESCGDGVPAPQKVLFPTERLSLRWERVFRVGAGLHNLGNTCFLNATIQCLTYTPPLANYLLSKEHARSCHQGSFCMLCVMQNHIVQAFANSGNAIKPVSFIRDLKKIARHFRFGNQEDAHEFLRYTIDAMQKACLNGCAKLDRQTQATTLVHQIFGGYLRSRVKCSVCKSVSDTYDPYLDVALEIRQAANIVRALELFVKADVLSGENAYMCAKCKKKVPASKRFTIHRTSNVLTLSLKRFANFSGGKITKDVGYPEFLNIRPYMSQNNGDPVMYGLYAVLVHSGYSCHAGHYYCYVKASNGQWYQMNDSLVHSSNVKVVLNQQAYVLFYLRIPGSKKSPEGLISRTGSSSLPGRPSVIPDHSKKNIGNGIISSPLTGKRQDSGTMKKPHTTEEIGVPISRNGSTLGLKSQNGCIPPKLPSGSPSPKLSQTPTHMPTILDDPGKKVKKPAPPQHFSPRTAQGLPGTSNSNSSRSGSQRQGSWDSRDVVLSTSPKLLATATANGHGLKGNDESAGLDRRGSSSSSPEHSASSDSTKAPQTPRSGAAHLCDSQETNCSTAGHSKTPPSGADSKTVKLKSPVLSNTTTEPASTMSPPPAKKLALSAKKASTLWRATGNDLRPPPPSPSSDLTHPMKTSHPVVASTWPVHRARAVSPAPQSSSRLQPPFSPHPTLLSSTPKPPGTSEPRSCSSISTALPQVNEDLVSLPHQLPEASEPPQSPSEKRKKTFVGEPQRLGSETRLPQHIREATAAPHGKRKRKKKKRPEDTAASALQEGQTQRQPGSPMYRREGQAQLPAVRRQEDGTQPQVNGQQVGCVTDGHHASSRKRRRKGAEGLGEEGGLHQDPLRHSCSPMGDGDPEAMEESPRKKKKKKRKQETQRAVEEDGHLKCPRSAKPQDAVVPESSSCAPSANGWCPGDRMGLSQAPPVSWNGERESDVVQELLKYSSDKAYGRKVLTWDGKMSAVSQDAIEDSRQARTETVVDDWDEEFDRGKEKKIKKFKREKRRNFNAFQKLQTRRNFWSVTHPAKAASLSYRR
Method: as §1

[3] = molecular target: USP9Y-Flag (human USP9Y with C-terminal Flag epitope) (human, UniProt O00507 1-2555, limits assumed)
Sequence of USP9Y-Flag (human USP9Y with C-terminal Flag epitope) (O00507 whole entry): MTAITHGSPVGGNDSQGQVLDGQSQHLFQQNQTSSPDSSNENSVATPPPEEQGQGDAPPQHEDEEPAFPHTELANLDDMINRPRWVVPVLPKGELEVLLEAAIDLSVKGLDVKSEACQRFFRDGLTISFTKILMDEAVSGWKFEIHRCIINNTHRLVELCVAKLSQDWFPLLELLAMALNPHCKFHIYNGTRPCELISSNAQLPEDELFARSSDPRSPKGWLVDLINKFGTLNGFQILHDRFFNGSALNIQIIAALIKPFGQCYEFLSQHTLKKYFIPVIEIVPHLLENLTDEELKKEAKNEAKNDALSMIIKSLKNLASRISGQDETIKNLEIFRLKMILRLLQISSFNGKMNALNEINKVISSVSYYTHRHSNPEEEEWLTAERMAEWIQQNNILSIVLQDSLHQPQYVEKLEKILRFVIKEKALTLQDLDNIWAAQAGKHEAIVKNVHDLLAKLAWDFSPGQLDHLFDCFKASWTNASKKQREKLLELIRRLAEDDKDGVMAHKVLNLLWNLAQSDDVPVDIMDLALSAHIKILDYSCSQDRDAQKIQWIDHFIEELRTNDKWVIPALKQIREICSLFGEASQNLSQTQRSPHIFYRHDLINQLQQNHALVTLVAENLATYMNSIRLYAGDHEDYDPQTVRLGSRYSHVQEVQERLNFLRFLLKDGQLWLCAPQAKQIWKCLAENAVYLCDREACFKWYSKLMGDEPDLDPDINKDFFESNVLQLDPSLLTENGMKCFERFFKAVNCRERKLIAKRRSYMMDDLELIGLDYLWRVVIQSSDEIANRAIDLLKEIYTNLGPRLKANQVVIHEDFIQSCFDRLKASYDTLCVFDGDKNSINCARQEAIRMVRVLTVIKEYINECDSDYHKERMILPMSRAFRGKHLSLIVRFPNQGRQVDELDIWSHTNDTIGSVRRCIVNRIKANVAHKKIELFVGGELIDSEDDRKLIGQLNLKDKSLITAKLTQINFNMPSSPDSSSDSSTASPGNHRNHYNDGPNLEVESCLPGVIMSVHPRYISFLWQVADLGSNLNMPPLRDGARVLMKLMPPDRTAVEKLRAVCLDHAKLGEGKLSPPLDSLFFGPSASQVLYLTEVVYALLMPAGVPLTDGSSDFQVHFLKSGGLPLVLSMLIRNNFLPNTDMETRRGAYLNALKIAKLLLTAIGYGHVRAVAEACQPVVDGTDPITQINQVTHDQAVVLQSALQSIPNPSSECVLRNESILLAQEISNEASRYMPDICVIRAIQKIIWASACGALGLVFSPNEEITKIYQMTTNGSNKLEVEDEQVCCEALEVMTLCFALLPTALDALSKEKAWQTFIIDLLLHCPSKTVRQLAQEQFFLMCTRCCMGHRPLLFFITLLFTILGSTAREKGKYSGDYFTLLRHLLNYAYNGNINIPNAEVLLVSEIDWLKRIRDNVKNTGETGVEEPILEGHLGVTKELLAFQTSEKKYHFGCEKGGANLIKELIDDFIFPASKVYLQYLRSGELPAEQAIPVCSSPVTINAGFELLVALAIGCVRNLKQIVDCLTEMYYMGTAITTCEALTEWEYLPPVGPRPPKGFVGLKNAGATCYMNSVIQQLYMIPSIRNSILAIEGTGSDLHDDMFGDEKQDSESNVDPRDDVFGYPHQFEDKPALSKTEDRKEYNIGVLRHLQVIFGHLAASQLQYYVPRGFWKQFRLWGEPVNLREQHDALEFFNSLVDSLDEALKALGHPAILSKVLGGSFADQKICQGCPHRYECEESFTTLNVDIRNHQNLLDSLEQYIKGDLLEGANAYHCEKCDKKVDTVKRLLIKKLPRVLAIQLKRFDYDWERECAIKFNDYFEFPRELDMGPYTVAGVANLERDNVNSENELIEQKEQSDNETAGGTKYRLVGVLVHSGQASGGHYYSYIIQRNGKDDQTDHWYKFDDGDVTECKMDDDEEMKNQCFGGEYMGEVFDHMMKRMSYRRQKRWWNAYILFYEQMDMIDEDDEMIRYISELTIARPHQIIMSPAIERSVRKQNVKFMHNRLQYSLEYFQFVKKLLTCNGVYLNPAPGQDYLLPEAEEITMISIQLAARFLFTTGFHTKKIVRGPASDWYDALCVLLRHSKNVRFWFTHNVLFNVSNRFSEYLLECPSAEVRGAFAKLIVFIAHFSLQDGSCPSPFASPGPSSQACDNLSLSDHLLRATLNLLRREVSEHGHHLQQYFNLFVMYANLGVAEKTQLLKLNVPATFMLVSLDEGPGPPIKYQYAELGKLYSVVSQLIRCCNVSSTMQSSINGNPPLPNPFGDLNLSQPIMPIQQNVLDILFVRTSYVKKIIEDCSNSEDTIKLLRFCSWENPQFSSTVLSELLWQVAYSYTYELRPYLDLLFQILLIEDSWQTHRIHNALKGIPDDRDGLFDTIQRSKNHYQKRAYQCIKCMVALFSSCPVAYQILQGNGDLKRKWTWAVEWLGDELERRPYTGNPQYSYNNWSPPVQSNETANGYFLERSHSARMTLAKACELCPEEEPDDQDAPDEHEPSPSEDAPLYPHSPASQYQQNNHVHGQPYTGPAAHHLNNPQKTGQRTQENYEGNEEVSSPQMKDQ
Method: as §1

[4] = molecular target: SENP3-Flag (human SENP3 with C-terminal Flag epitope) (human, UniProt Q9H4L4 1-574, limits assumed)
Sequence of SENP3-Flag (human SENP3 with C-terminal Flag epitope) (Q9H4L4 whole entry): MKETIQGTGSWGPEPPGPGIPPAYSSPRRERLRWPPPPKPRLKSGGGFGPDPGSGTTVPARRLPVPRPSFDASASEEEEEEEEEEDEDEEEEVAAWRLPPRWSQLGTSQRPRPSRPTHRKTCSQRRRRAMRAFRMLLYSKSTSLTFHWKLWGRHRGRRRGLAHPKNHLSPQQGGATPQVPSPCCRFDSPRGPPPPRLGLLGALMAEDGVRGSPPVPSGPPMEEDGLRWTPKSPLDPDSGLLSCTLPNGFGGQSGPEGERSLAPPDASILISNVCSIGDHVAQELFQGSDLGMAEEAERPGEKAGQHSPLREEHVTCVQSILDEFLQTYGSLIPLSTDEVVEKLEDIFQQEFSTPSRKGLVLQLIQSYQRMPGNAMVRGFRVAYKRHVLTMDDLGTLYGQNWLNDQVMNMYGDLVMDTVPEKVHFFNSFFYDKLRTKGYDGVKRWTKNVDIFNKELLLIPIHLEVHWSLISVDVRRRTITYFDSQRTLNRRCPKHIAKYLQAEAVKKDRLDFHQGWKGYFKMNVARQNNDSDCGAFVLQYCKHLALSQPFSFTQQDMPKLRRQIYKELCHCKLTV
Method: as §1

binding result [1]: no binding
binding result [2]: no binding
binding result [3]: no binding
binding result [4]: no binding
B1: ID2 (co-transfected / co-expressed in 293T cells) (other)
chain: MKAFSPVRSVRKNSLSDHSLGISRSKTPVDDPMSLLYNMNDCYSKLKELVPSIPQNKKVSKMEILQHVIDYILDLQIALDSHPTIVSLHHQRPGQNQASRTPLTTLNTDISILSLQASEFPSELMSNDSKALCG
notes: ID2 was amplified from Jurkat-derived cDNA; The methods describe only a C-terminal Flag version in pRK2001
